These results are taken from US20180038859A1.

Common to all, as to assay: cell-based or functional assay
Test [1] addresses CXCR1 (human) (UniProt P25024).
Test [2] has as its target hCCR2b (human) (UniProt P41597).
Test [3] concerns the target hCCR2b (human), P41597.

Chain of hCCR2b (human) (P41597 whole entry): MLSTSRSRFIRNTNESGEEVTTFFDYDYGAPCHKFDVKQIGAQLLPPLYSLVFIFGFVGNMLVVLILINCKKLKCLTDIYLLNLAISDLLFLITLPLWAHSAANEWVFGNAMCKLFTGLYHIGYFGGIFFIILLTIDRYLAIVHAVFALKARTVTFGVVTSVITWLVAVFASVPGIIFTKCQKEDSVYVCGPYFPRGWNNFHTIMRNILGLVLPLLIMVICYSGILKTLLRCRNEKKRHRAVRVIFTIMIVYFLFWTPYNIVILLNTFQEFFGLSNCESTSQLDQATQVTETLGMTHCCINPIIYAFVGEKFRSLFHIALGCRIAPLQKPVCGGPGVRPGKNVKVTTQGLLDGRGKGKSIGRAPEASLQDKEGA
Chain of CXCR1 (human) (P25024 whole entry): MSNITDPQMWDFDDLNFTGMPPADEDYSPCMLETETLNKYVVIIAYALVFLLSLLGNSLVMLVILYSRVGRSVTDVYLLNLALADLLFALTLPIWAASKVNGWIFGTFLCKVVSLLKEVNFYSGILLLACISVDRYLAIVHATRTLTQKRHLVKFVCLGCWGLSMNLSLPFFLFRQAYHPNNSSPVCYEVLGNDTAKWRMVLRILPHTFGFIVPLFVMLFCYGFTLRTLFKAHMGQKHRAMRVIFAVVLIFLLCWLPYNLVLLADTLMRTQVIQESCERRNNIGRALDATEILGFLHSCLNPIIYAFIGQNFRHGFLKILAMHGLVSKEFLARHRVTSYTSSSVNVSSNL
Chain of hCCR2b (human), P41597 (P41597 whole entry): as the sequence (P41597 whole entry) above

In test [1], “recombinant native IL-8 (from UniProt P10145 28-99) (ligand)” returned an EC50, agonist activity in an Aequorin assay of 5.2 nM.

In test [2], “recombinant native MCP-1 (from UniProt P13500 24-99) (ligand)” registered an EC50, agonist activity in an Aequorin assay of 3.1 nM.

Regarding “recombinant native MCP-2 (from UniProt P80075 24-99) (ligand)”, the EC50, activity (partial agonist) in an Aequorin assay in test [2] was 23.5 nM.

B1: biotinMCP-2 (CCL8), P80075 24-99 (ligand)
chain: QPDSVSIPITCCFNVINRKIPIQRLESYTRITNIQCPKEAVIFKTKRGKEVCADPKERWVRDSMKHLDQIFQNLKP
modifications: here or on the partner: pyroGlu at position 1 (replaces Gln1); Lys75 epsilon-amino PEG-Biotin; C-terminal amide
For B1, the EC50, activity (partial agonist) in an Aequorin assay in test [3] was determined as 50.9 nM.
